# In patent US20190314526A1:
# How the values were obtained:
# [1] = target: AAV-2 capsid mutant V571K (rAAV-2 virion) (AAV-2) (UniProt P03135); assay: A20/IgG sandwich ELISA: capture on coated Panglobulin, detection with A20-biotin; against wild type
# [2] = target: AAV-2 capsid mutant R448K (rAAV-2 virion) (AAV-2) (UniProt P03135); assay: cell-based or functional assay
# [3] = target: AAV-2 capsid mutant S130T (rAAV-2 virion) (AAV-2) (UniProt P03135); assay: cell-based or functional assay
# [4] = target: AAV-2 capsid mutant G449A/N568A (rAAV-2 virion) (AAV-2) (UniProt P03135); assay: cell-based or functional assay
# [5] = target: AAV-2 capsid mutant E411A/T413A/G449A/N450A (rAAV-2 virion) (AAV-2) (UniProt P03135); assay: cell-based or functional assay
# [6] = target: AAV-2 capsid mutant Q438A (rAAV-2 virion) (AAV-2) (UniProt P03135); assay: cell-based or functional assay
# [7] = target: AAV-2 capsid mutant N568A/V571A (rAAV-2 virion) (AAV-2) (UniProt P03135); assay: cell-based or functional assay
# [8] = target: AAV-2 capsid mutant H134Q (rAAV-2 virion) (AAV-2) (UniProt P03135); assay: cell-based or functional assay
# [9] = target: AAV-2 capsid mutant G375P (rAAV-2 virion) (AAV-2) (UniProt P03135); assay: cell-based or functional assay
# [10] = target: AAV-2 capsid mutant T413K (rAAV-2 virion) (AAV-2) (UniProt P03135); assay: cell-based or functional assay
# [11] = target: AAV-2 capsid mutant E394K (rAAV-2 virion) (AAV-2) (UniProt P03135); assay: cell-based or functional assay
# [12] = target: AAV-2 capsid mutant G128A (rAAV-2 virion) (AAV-2) (UniProt P03135); assay: cell-based or functional assay
# [13] = target: AAV-2 capsid mutant E411A/T413A/G449A/N450A/N568A/V571A (rAAV-2 virion) (AAV-2) (UniProt P03135); assay: cell-based or functional assay
# [14] = target: AAV-2 capsid mutant T354A (rAAV-2 virion) (AAV-2) (UniProt P03135); assay: cell-based or functional assay
# [15] = target: AAV-2 capsid mutant N360H/S361A (rAAV-2 virion) (AAV-2) (UniProt P03135); assay: cell-based or functional assay
# [16] = target: AAV-2 capsid mutant D357E (rAAV-2 virion) (AAV-2) (UniProt P03135); assay: cell-based or functional assay
# [17] = target: AAV-2 capsid mutant R334A/N568A (rAAV-2 virion) (AAV-2) (UniProt P03135); assay: cell-based or functional assay
# [18] = target: AAV-2 capsid mutant K390A (rAAV-2 virion) (AAV-2) (UniProt P03135); assay: cell-based or functional assay
# [19] = target: AAV-2 capsid mutant N133A (rAAV-2 virion) (AAV-2) (UniProt P03135); assay: cell-based or functional assay
# [20] = target: AAV-2 capsid mutant F396A (rAAV-2 virion) (AAV-2) (UniProt P03135); assay: cell-based or functional assay
# [21] = target: AAV-2 capsid mutant N450A (rAAV-2 virion) (AAV-2) (UniProt P03135); assay: cell-based or functional assay
# [22] = target: AAV-2 capsid mutant E437A (rAAV-2 virion) (AAV-2) (UniProt P03135); assay: cell-based or functional assay
# [23] = target: AAV-2 capsid mutant K407A (rAAV-2 virion) (AAV-2) (UniProt P03135); assay: cell-based or functional assay
# [24] = target: AAV-2 capsid mutant R334A (rAAV-2 virion) (AAV-2) (UniProt P03135); assay: cell-based or functional assay
# [25] = target: AAV-2 capsid mutant D132N (rAAV-2 virion) (AAV-2) (UniProt P03135); assay: cell-based or functional assay
# [26] = target: AAV-2 capsid mutant K569A (rAAV-2 virion) (AAV-2) (UniProt P03135); assay: cell-based or functional assay
# [27] = target: AAV-2 capsid mutant R334A/G449A (rAAV-2 virion) (AAV-2) (UniProt P03135); assay: cell-based or functional assay
# [28] = target: AAV-2 with a wild-type capsid (rAAV-2 virion) (AAV-2) (UniProt P03135); assay: cell-based or functional assay
# [29] = target: AAV-2 capsid mutant D377A (rAAV-2 virion) (AAV-2) (UniProt P03135); assay: cell-based or functional assay
# [30] = target: AAV-2 capsid mutant D357N (rAAV-2 virion) (AAV-2) (UniProt P03135); assay: cell-based or functional assay
substance,measurement,setting,value
"purified human IgG from >10,000 donors (Panglobulin, ZLB Bioplasma AG)",fold reduction of binding,[1],100 fold
same,Fold decrease in neutralizing titer,[2],1 fold
same,Fold decrease in neutralizing titer,[3],1.8 fold
same,Fold decrease in neutralizing titer,[4],1.7 fold
same,Fold decrease in neutralizing titer,[5],1 fold
same,Fold decrease in neutralizing titer,[6],1.3 fold
same,Fold decrease in neutralizing titer,[7],2.5 fold
same,Fold decrease in neutralizing titer,[8],1.5 fold
same,Fold decrease in neutralizing titer,[9],1.9 fold
same,Fold decrease in neutralizing titer,[10],2.6 fold
same,Fold decrease in neutralizing titer,[11],2.3 fold
same,Fold decrease in neutralizing titer,[12],4.1 fold
same,Fold decrease in neutralizing titer,[13],1.3 fold
same,Fold decrease in neutralizing titer,[14],2.9 fold
same,Fold decrease in neutralizing titer,[15],2.1 fold
same,Fold decrease in neutralizing titer,[16],1.7 fold
same,Fold decrease in neutralizing titer,[17],2.4 fold
same,Fold decrease in neutralizing titer,[18],2.3 fold
same,Fold decrease in neutralizing titer,[19],0.9 fold
same,Fold decrease in neutralizing titer,[20],1.6 fold
same,Fold decrease in neutralizing titer,[21],1.6 fold
same,Fold decrease in neutralizing titer,[22],2 fold
same,Fold decrease in neutralizing titer,[23],3.3 fold
same,Fold decrease in neutralizing titer,[24],2.2 fold
same,Fold decrease in neutralizing titer,[25],3.8 fold
same,Fold decrease in neutralizing titer,[26],4 fold
same,Fold decrease in neutralizing titer,[27],3.9 fold
same,Fold decrease in neutralizing titer,[28],1 fold
same,Fold decrease in neutralizing titer,[29],1.9 fold
same,Fold decrease in neutralizing titer,[30],1.8 fold
